One variant from IntAct's records for PubMed 17962809 can be followed below.

The chains are these.
B1: Serine/threonine-protein kinase D2 (Homo sapiens), Q9BZL6 (parent)
chain: MATAPSYPAGLPGSPGPGSPPPPGGLELQSPPPLLPQIPAPGSGVSFHIQIGLTREFVLLPAASELAHVKQLACSIVDQKFPECGFYGLYDKILLFKHDPTSANLLQLVRSSGDIQEGDLVEVVLSASATFEDFQIRPHALTVHSYRAPAFCDHCGEMLFGLVRQGLKCDGCGLNYHKRCAFSIPNNCSGARKRRLSSTSLASGHSVRLGTSESLPCTAEELSRSTTELLPRRPPSSSSSSSASSYTGRPIELDKMLLSKVKVPHTFLIHSYTRPTVCQACKKLLKGLFRQGLQCKDCKFNCHKRCATRVPNDCLGEALINGDVPMEEATDFSEADKSALMDESEDSGVIPGSHSENALHASEEEEGEGGKAQSSLGYIPLMRVVQSVRHTTRKSSTTLREGWVVHYSNKDTLRKRHYWRLDCKCITLFQNNTTNRYYKEIPLSEILTVESAQNFSLVPPGTNPHCFEIVTANATYFVGEMPGGTPGGPSGQGAEAARGWETAIRQALMPVILQDAPSAPGHAPHRQASLSISVSNSQIQENVDIATVYQIFPDEVLGSGQFGVVYGGKHRKTGRDVAVKVIDKLRFPTKQESQLRNEVAILQSLRHPGIVNLECMFETPEKVFVVMEKLHGDMLEMILSSEKGRLPERLTKFLITQILVALRHLHFKNIVHCDLKPENVLLASADPFPQVKLCDFGFARIIGEKSFRRSVVGTPAYLAPEVLLNQGYNRSLDMWSVGVIMYVSLSGTFPFNEDEDINDQIQNAAFMYPASPWSHISAGAIDLINNLLQVKMRKRYSVDKSLSHPWLQEYQTWLDLRELEGKMGERYITHESDDARWEQFAAEHPLPGSGLPTDRDLGGACPPQDHDMQGLAERISVL
partner: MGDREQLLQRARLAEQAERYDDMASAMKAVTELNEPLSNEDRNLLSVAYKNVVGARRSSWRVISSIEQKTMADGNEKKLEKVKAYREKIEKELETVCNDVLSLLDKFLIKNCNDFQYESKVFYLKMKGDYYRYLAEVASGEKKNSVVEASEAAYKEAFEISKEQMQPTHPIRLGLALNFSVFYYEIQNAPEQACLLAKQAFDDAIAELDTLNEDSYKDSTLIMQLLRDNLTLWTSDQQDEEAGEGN

The test covers variants of B1. The following applies: with 1433f_human YWHAH.
S244E;S706E;S710E: the “effect of a mutation on the interaction” value was “disrupting interaction”.
